Here are results for 22 molecules from patent US20230192896A1 (published 2023).

For this experiment, the target named is T1, FX zymogen (UniProt P00742 41-179; P00742 183-488).
T1 chain 1: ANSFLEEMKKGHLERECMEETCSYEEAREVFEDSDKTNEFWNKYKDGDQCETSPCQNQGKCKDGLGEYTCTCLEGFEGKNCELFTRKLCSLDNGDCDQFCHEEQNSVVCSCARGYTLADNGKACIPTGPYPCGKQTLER
T1 chain 2: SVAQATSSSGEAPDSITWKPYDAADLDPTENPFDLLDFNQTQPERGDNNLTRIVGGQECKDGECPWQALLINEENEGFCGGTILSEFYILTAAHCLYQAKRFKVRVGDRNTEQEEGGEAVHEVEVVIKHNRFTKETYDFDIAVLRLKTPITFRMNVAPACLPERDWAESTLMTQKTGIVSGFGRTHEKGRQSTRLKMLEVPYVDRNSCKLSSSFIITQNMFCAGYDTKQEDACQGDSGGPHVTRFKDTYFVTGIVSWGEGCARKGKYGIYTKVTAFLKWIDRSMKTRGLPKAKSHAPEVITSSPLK
Nature of the experiment: BLI. In general terms: BLI is a label-free optical method that tracks binding on a fibre tip over time.

B1: BIIB-12-932 (antibody, V domains shown)
VH: QVQLVESGGGVVQPGRSLRLSCAASGFTFSSYGMHWVRQAPGKGLEWVAVISYDGSNKYYADSVKGRFTISRDNSKNTLYLQMNSLRAEDTAVYYCARLGYRGASAFDIWGQGTMVTVSS
VL: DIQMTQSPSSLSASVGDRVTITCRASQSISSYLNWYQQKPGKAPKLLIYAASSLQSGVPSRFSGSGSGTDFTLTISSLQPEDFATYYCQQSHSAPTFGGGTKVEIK
As a reminder, the Kd is the equilibrium constant for the complex coming apart. Read a high Kd as weaker binding. In turn, B1 gave a Kd of 29.3 nM.

B2: BIIB-12-931 (antibody, V domains shown)
VH: QVQLVQSGAEVKKPGASVKVSCKASGYTFTSYYMSWVRQAPGQGLEWMGIINPSGGSTSYAQKFQGRVTMTRDTSTSTVYMELSSLRSEDTAVYYCARDPVQEYGPYYYYMDVWGKGTTVTVSS
VL: EIVMTQSPATLSVSPGERATLSCRASQSVSSNLAWYQQKPGQAPRLLIYGASTRATGIPARFSGSGSGTEFTLTISSLQSEDFAVYYCQQAAYWPWTFGGGTKVEIK
Molecule B2 showed a Kd of 13.5 nM.

B3: BIIB-12-904 (antibody, V domains shown)
VH: QVQLVESGGGVVQPGRSLRLSCAASGFTFSSYGMHWVRQAPGKGLEWVAVISYDGSNKYYADSVKGRFTISRDNSKNTLYLQMNSLRAEDTAVYYCARGSGRSGYHYWGQGTLVTVSS
VL: EIVMTQSPATLSVSPGERATLSCRASQSVSSNLAWYQQKPGQAPRLLIYGASTRATGIPARFSGSGSGTEFTLTISSLQSEDFAVYYCQQAFNWPPTFGGGTKVEIK
The molecule B3 showed a Kd of 42.3 nM. Compared with the last molecule, the Kd is about 3.1-fold higher.

B4: BIIB-12-926 (antibody, V domains shown)
VH: QVQLVQSGAEVKKPGASVKVSCKASGYTFTSYYMHWVRQAPGQGLEWMGIINPSGGSTSYAQKFQGRVTMTRDTSTSTVYMELSSLRSEDTAVYYCARDGRMARGASPDYWGQGTLVTVSS
VL: EIVMTQSPATLSVSPGERATLSCRASQSVSSNLAWYQQKPGQAPRLLIYGASTRATGIPARFSGSGSGTEFTLTISSLQSEDFAVYYCQQHSFWPPTFGGGTKVEIK
For the molecule B4, the affinity, expressed as Kd, was 24 nM.

B5: BIIB-12-1327 (antibody, V domains shown)
VH: QVQLVESGGGVVQPGRSLRLSCAASGFTFSSYGMHWVRQAPGKGLEWVAVISYDGSNKYYADSVKGRFTISRDNSKNTLYLQMNSLRAEDTAVYYCAKLGLARGGGYGMDVWGQGTTVTVSS
VL: EIVMTQSPATQYVSPGERATLSCRASQSVSSNLAWYQQKPGQAPRLLIYGASTRATGIPARFSGSGSGTEFTLTISSLQSEDFAVYYCQQYHNFPPTFGGGTKVEIK
For B5, the Kd amounted to 38.3 nM.

B6: BIIB-12-894 (antibody, V domains shown)
VH: QLQLQESGPGLVKPSETLSLTCTVSGGSISSSSYYWGWIRQPPGKGLEWIGSIYYSGSTYYNPSLKSRVTISVDTSKNQFSLKLSSVTAADTAVYYCAREGAHSSMAGLDVWGQGTMVTVSS
VL: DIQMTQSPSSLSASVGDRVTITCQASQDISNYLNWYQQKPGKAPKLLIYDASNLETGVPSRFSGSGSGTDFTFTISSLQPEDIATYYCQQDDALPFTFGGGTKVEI
Take B6: the affinity, expressed as Kd, was 38 nM.

B7: BIIB-12-1322 (antibody, V domains shown)
VH: QVQLVQSGAEVKKPGASVKVSCKASGYTFTSYYIHWVRQAPGQGLEWMGIINPSGGSTSYAQKFQGRVTMTRDTSTSTVYMELSSLRSEDTAVYYCARSRQRHRGDWYFDLWGRGTLVTVSS
VL: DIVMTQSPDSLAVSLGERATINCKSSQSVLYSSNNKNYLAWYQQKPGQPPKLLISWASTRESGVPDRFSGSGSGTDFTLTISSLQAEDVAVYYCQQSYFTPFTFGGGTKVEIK
For the molecule B7, the Kd turned out to be 36.1 nM.

B8: BIIB-12-924 (antibody, V domains shown)
VH: QVQLVESGGGVVQPGRSLRLSCAASGFTFSSYGMHWVRQAPGKGLEWVAVISYDGSNKYYADSVKGRFTISRDNSKNTLYLQMNSLRAEDTAVYYCAKGKSSERGLNPWGQGTLVTVSS
VL: DIQMTQSPSSVSASVGDRVTITCRASQGISSWLAWYQQKPGKAPKLLIYAASSLQSGVPSRFSGSGSGTDFTLTISSLQPEDFATYYCQQGNSFPLTFGGGTKVEIK
Turning to B8, the Kd was 22.3 nM.

B9: BIIB-12-1332 (antibody, V domains shown)
VH: QVQLVQSGAEVKKPGASVKVSCKASGYTFTSYYMSWVRQAPGQGLEWMGIINPSGGSTSYAQKFQGRVTMTRDTSTSTVYMELSSLRSEDTAVYYCARLGRKSRVFDIWGQGTMVTVSS
VL: DIQMTQSPSSVSASVGDRVTITCRASQGISSWLAWYQQKPGKAPKLLIYAASSLQSGVPSRFSGSGSGTDFTLTISSLQPEDFATYYCQQVNSFPLTFGGGTKVEFK
Molecule B9 had an equilibrium dissociation constant (Kd) of 53.5 nM.

B10: BIIB-12-1295 (antibody, V domains shown)
VH: QVQLVQSGAEVKKPGASVKVSCKASGYTFTSYYMVWVRQAPGQGLEWMGIINPSGGSTSYAQKFQGRVTMTRDTSTSTVYMELSSLRSEDTAVYYCARVGGATTGKIGYGMDVWGQGTTVTVSS
VL: DIQMTQSPSSVSASVGDRVTITCRASQGISSWLAWYQQKPGKAPKLLIYAASNLQSGVPSRFSGSGSGTDFTLTISSLQPEDFATYYCQQAISLPITFGGGTKVEIK
B10 displayed a Kd of 42.6 nM.

B11: BIIB-12-916 (antibody, V domains shown)
VH: QVQLVQSGAEVKKPGASVKVSCKASGYTFTSYYMHWVRQAPGQGLEWMGIINPSGGSTSYAQKFQGRVTMTRDTSTSTVYMELSSLRSEDTAVYYCARGGRQKATRRVDVWGQGTVVTVSS
VL: DIQMTQSPSSLSASVGDRVTITCRASQSISSYLNWYQQKPGKAPKLLIYAASSLQSGVPSRFSGSGSGTDFTLTISSLQPEDFATYYCQQLAITPFTFGGGTKVEIK
Take B11: the affinity, expressed as Kd, was 15.6 nM.

B12: BIIB-12-1298 (antibody, V domains shown)
VH: QVQLVESGGGVVQPGRSLRLSCAASGFTFSSYGMHWVRQAPGKGLEWVAVISYDGSNKYYADSVKGRFTISRDNSKNTLYLQMNSLRAEDTAVYYCAKGGSDRRVGSWGQGTLVTVSS
VL: DIQMTQSPSSVSASVGDRVTITCRASQGISSWLAWYQQKPGKAPKLLIYAASSLQSGVPSRFSGSGSGTDFTLTISSLQPEDFATYYCQQTNSLPITFGGGTKVEIK
Molecule B12 registered a Kd of 33.5 nM.

B13: BIIB-12-1300 (antibody, V domains shown)
VH: QVQLVESGGGVVQPGRSLRLSCAASGFTFSSYGMHWVRQAPGKGLEWVAVISYDGSNKYYADSVKGRFTISRDNSKNTLYLQMNSLRAEDTAVYYCARGSKYLHAWGQGTLVTVSS
VL: DIQMTQSPSSVSASVGDRVTITCRASQGISSWLAWYQQKPGKAPKLLIYAASSLQSGVPSRFSGSGSGTDFTLTISSLQPEDFATYYCQQASSFPPTFGGGTKVEIK
B13 returned a Kd of 48.6 nM.

B14: BIIB-12-1320 (antibody, V domains shown)
VH: QLQLQESGPGLVKPSETLSLTCTVSGGSISSSSYYWGWIRQPPGKGLEWIGSIYYSGSTYYNPSLKSRVTISVDTSKNQFSLKLSSVTAADTAVYYCARGSGLLVREHYYYYMDVWGKGTTVTVS
VL: DIQMTQSPSSLSASVGDRVTITCRASQSISSYLNWYQQKPGKAPKLLIYAASSLQSGVPSRFSGSGSGTDFTLTISSLQPEDFATYYCQQADDTPWTFGGGTKVEIK
As to B14, the Kd came to 8.27 nM.

B15: BIIB-12-933 (antibody, V domains shown)
VH: QVQLVESGGGVVQPGRSLRLSCAASGFTFSSYGMHWVRQAPGKGLEWVAVISYDGSNKYYADSVKGRFTISRDNSKNTLYLQMNSLRAEDTAVYYCARLPRFTGTAYWGQGTLVTVSS
VL: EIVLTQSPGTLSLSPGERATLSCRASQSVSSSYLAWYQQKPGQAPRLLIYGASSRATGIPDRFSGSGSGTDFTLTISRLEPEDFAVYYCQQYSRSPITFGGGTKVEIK
For B15, the affinity, expressed as Kd, was 50.3 nM. This Kd lies about 6.1-fold higher than the previous one.

B16: BIIB-12-923 (antibody, V domains shown)
VH: QVQLVQSGAEVKKPGASVKVSCKASGYTFTSYYMHWVRQAPGQGLEWMGIINPSGGSTSYAQKFQGRVTMTRDTSTSTVYMELSSLRSEDTAVYYCARGAGYLQRAFDIWGQGTMVTVSS
VL: DIQMTQSPSTLSASVGDRVTITCRASQSISSWLAWYQQKPGKAPKLLIYKASSLESGVPSRFSGSGSGTEFTLTISSLQPDDFATYYCQQFKSLSFTFGGGTKVEIK
On to B16, for which the Kd amounted to 33.8 nM.

B17: BIIB-12-1294 (antibody, V domains shown)
VH: QVQLVQSGAEVKKPGASVKVSCKASGYTFTSYYMHWVRQAPGQGLEWMGIINPSGGSTSYAQKFQGRVTMTRDTSTSTVYMELSSLRSEDTAVYYCARGTRSSRDMDVWGQGTTVTVSS
VL: DIQMTQSPSTLSASVGDRVTITCRASQSISSWLAWYQQKPGKAPKLLIYKASSLESGVPSRFSGSGSGTEFTLTISSLQPDDFATYYCQQVNTFPFTFGGGTKVEIK
Take B17: the affinity, expressed as Kd, was 37.3 nM. The Kd values of the last two molecules are within 1.5-fold of each other.

B18: BIIB-12-1321 (antibody, V domains shown)
VH: QVQLVQSGAEVKKPGSSVKVSCKASGGTFSSYAISWVRQAPGQGLEWMGGIIPIFGTANYAQKFQGRVTITADESTSTAYMELSSLRSEDTAVYYCARTPDTSSATDWGQGTLVTVSS
VL: EIVMTQSPATLSLSPGERATLSCRASQSVSSYLAWYQQKPGQAPRLLIYDSSNRATGIPARFSGSGSGTDFTLTISSLEPEDFAVYYCQQFTNLPYTFGGGTKVEIK
In the case of B18, the Kd was determined as 10.6 nM. Compared with the last molecule, the Kd is about 3.5-fold lower.

B19: BIIB-12-1311 (antibody, V domains shown)
VH: QVQLVESGGGVVQPGRSLRLSCAASGFTFSSYGMHWVRQAPGKGLEWVAVISYDGSNKYYADSVKGRFTISRDNSKNTLYLQMNSLRAEDTAVYYCAKGRHYWAVWGQGTLVTVSS
VL: EIVLTQSPATLSLSPGERATLSCRASQSVSSYLAWYQQKPGQAPRLLIYDASNRATGIPARFSGSGSGTDFTLTISSLEPEDFAVYYCQQASNLPPTFGGGTKVEIK
B19 registered a Kd of 29 nM.

B20: BIIB-12-1301 (antibody, V domains shown)
VH: QVQLVESGGGVVQPGRSLRLSCAASGFTFSSYGMHWVRQAPGKGLEWVAVISYDGSNKYYADSVKGRFTISRDNSKNTLYLQMNSLRAEDTAVYYCARTGNYGRGMPYWGQGTLVTVSS
VL: EIVLTQSPATLSLSPGERATLSCRASQSVSSYLAWYQQKPGQAPRLLIYDASKRATGIPARFSGSGSGTDFTLTISSLEPEDFAVYYCQQSSSWPPTFGGGTKVEIK
In the case of B20, the Kd was 65 nM.

B21: BIIB-12-1303 (antibody, V domains shown)
VH: QVQLVESGGGVVQPGRSLRLSCAASGFTFSSYGMHWVRQAPGKGLEWVAVISYDGSNKYYADSVKGRFTISRDNSKNTLYLQMNSLRAEDTAVYYCARGPTSRLFQHWGQGTLVTVS
VL: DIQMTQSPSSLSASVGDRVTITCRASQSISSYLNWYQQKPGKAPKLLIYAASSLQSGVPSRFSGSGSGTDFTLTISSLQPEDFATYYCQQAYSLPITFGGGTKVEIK
Regarding B21, the Kd came to 25.9 nM.

B22: BIIB-12-915 (antibody, V domains shown)
VH: QLQLQESGPGLVKPSETLSLTCTVSGGSISSSRYYWGWIRQPPGKGLEWIGSIYYSGSTYYNPSLKSRVTISVDTSKNQFSLKLSSVTAADTAVYYCARVGGGYANPWGQGTLVTVSS
VL: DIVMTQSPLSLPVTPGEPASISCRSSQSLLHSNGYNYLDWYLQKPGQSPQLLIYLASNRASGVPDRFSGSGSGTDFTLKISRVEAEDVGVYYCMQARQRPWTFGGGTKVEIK
Molecule B22 returned a Kd of 34.4 nM.
